Experimental data published in the supplement of paper PMC10126150.
± gives the standard deviation of the averaged measurements.

tested on: ATP; assay: switch fluorescence ratio, 500 uM ATP over buffer (Cy3 cluster intensity, sum of 5 cycles each) (fold (ratio)); higher = stronger signal-on switching upon ATP binding; sequences stand for … in TCGTCGGCAGCGTCAGATGTGTATAAGAGACAGTTTTTTTTTTTTTTTTTTTTTTTTT…TC; conditions: aptamer strand: ATP DNA aptamer (quencher-CACCTGGGGGAGTATTGCGGAGGAAGG + anchor), 100 nM annealed; ATP concentration: 500 uM
Procedure, shortened: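 Values give the fluorescence ratio for each switch-domain sequence, averaged from per-cluster ratios of summed target-cycle to summed buffer-cycle Cy3 intensity. The Cy3-labelled switching-strand clusters sat on a modified Illumina MiSeq flow-cell, were annealed to 100 nM quencher-labelled ATP aptamer, and were imaged in selection buffer, then after 15 min with 500 uM ATP at 22 °C. Five cycles ran with NaOH stripping and re-annealing between them, and clusters outside 100-1000 RFU were excluded.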
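Note: ATP exposure 15 min at 22 °C before imaging.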

Going from CTCTGATAGC to CTCTGTGACG, the switch fluorescence ratio falls from 1.23 ± 0.013 to 1.03 ± 0.012.

CTCTGTGGTG and CTCTGTGTTT are within error of each other in switch fluorescence ratio: 1.02 ± 0.048 for the first, 0.9924 ± 0.00037 for the second.

First: CTCTGTTGTG
Second: CTCTTAGTTT
The switch fluorescence ratio of the first is lower: 0.961 ± 0.012 for the first, 0.999 ± 0.023 for the second.

CTCTTGGGCT and CTCTTGTATC are within error of each other in switch fluorescence ratio: 0.971 ± 0.089 for the first, 1.05 ± 0.063 for the second.

Compared with CTCTTTGCAG, CTGAAGAATT is lower in switch fluorescence ratio: 1.086 ± 0.0044 for the first, 1.03 ± 0.015 for the second.

Going from CTGACCTGTA to CTGACGTGCT, the switch fluorescence ratio falls from 1.093 ± 0.0021 to 1.062 ± 0.004.

First: CTGAGCAAG
Second: CTGAGCGATT
The switch fluorescence ratio of the first is higher: 2.34 ± 0.28 for the first, 1.41 ± 0.032 for the second.

CTGAGCTTCG and CTGAGGGGTG are within error of each other in switch fluorescence ratio: 1 ± 0.0032 for the first, 1.01 ± 0.037 for the second.

CTGAGGTGGT and CTGAGGTTAT are within error of each other in switch fluorescence ratio: 0.991 ± 0.046 for the first, 1.04 ± 0.038 for the second.

First: CTGAGTATGC
Second: CTGAGTTTAT
The switch fluorescence ratio of the first is higher: 1.05 ± 0.026 for the first, 0.997 ± 0.023 for the second.

CTGATACATT and CTGATACTGG are within error of each other in switch fluorescence ratio: 0.9715 ± 0.0069 for the first, 0.997 ± 0.045 for the second.

CTGATAGGAT and CTGATGCCGT are within error of each other in switch fluorescence ratio: 1.22 ± 0.37 for the first, 1.08 ± 0.057 for the second.

Going from CTGATGCGGG to CTGATGTGGG, the switch fluorescence ratio falls from 1.06 ± 0.062 to 0.964 ± 0.015.

Going from CTGATTTTCC to CTGCAAGCGG, the switch fluorescence ratio rises from 1.01 ± 0.061 to 1.28 ± 0.057.

CTGCAGGGGG and CTGCAGTTGA are within error of each other in switch fluorescence ratio: 1.05 ± 0.044 for the first, 1.04 ± 0.024 for the second.

CTGCATGGTT and CTGCCCTATT are within error of each other in switch fluorescence ratio: 1.01 ± 0.016 for the first, 1 ± 0.023 for the second.

CTGCGACTGT and CTGCGACTTT are within error of each other in switch fluorescence ratio: 1.026 ± 0.0099 for the first, 1.02 ± 0.035 for the second.

CTGCGAGGAT and CTGCGGGAGG are the same in switch fluorescence ratio: 1.01 ± 0.034 for the first, 1.008 ± 0.0024 for the second.

CTGCGGGGGA and CTGCGGGTTA are within error of each other in switch fluorescence ratio: 1.03 ± 0.037 for the first, 1.01 ± 0.015 for the second.

CTGCGTCTAA and CTGCGTGATG are the same in switch fluorescence ratio: 1.03 ± 0.027 for the first, 1.03 ± 0.011 for the second.

CTGCTAGGCT and CTGCTTGGGA are the same in switch fluorescence ratio: 1.01 ± 0.028 for the first, 1.012 ± 0.0033 for the second.

CTGGAATGTG and CTGGACCTTG are within error of each other in switch fluorescence ratio: 1.003 ± 0.01 for the first, 0.977 ± 0.026 for the second.

Compared with CTGGACGCTG, CTGGAGCGCT is higher in switch fluorescence ratio: 1.01 ± 0.017 for the first, 1.22 ± 0.054 for the second.

First: CTGGATCCTT
Second: CTGGATGTTA
The switch fluorescence ratio of the first is higher: 1.05 ± 0.017 for the first, 0.999 ± 0.024 for the second.

Compared with CTGGCACAGA, CTGGCACTGG is higher in switch fluorescence ratio: 0.988 ± 0.019 for the first, 1.016 ± 0.0056 for the second.

Compared with CTGGCAGGGC, CTGGCATGGA is lower in switch fluorescence ratio: 1.07 ± 0.016 for the first, 1.01 ± 0.021 for the second.

First: CTGGCCGGGC
Second: CTGGCGACAC
The switch fluorescence ratio of the first is lower: 1.03 ± 0.022 for the first, 1.39 ± 0.14 for the second.

First: CTGGCTACTA
Second: CTGGCTAGAG
The switch fluorescence ratio of the first is higher: 1.03 ± 0.031 for the first, 0.973 ± 0.018 for the second.

First: CTGGCTATTG
Second: CTGGGACGTG
The switch fluorescence ratio of the first is higher: 1.022 ± 0.0028 for the first, 0.967 ± 0.028 for the second.

CTGGGAGGGT and CTGGGCCCGG are within error of each other in switch fluorescence ratio: 0.9977 ± 0.0012 for the first, 1.16 ± 0.27 for the second.

CTGGGCCGTC and CTGGGCGGTG are within error of each other in switch fluorescence ratio: 1.01 ± 0.021 for the first, 0.9982 ± 0.0052 for the second.

CTGGGGAGCG and CTGGGGATCG are within error of each other in switch fluorescence ratio: 0.954 ± 0.034 for the first, 1.02 ± 0.043 for the second.

CTGGGGCGCT and CTGGGGCGGA are within error of each other in switch fluorescence ratio: 1.028 ± 0.0032 for the first, 0.983 ± 0.052 for the second.

CTGGGGCGGG and CTGGGGCGTT are within error of each other in switch fluorescence ratio: 0.996 ± 0.057 for the first, 0.983 ± 0.0034 for the second.

CTGGGGGAAC and CTGGGGGCCG are within error of each other in switch fluorescence ratio: 1.004 ± 0.0049 for the first, 0.979 ± 0.054 for the second.

CTGGGGGGTC and CTGGGGTTGT are within error of each other in switch fluorescence ratio: 1.24 ± 0.41 for the first, 1.02 ± 0.012 for the second.

CTGGGTAGAC and CTGGGTGTTC are within error of each other in switch fluorescence ratio: 1.08 ± 0.011 for the first, 1.05 ± 0.035 for the second.

CTGGGTTTGG and CTGGTAAAGA are within error of each other in switch fluorescence ratio: 1 ± 0.025 for the first, 0.984 ± 0.015 for the second.

CTGGTAATTT and CTGGTATACG are within error of each other in switch fluorescence ratio: 1.02 ± 0.079 for the first, 1.06 ± 0.055 for the second.

Going from CTGGTATAGG to CTGGTATATC, the switch fluorescence ratio rises from 0.977 ± 0.028 to 1.063 ± 0.0067.

CTGGTATGCG and CTGGTCATTT are within error of each other in switch fluorescence ratio: 0.969 ± 0.054 for the first, 0.997 ± 0.069 for the second.

CTGGTCCGGT and CTGGTGCGCG are within error of each other in switch fluorescence ratio: 0.994 ± 0.018 for the first, 0.98 ± 0.032 for the second.

CTGGTGGAGC and CTGGTGGGGG are within error of each other in switch fluorescence ratio: 0.954 ± 0.021 for the first, 0.9702 ± 0.0027 for the second.

First: CTGGTGTATT
Second: CTGGTTACGC
The switch fluorescence ratio of the first is higher: 1.017 ± 0.0046 for the first, 1.003 ± 0.0057 for the second.

CTGGTTACGG and CTGGTTCACC are within error of each other in switch fluorescence ratio: 1.01 ± 0.015 for the first, 0.99 ± 0.013 for the second.

CTGGTTCAGA and CTGGTTGATT are within error of each other in switch fluorescence ratio: 0.994 ± 0.013 for the first, 0.997 ± 0.04 for the second.

CTGGTTGGGA and CTGTAAAGAG are within error of each other in switch fluorescence ratio: 0.992 ± 0.013 for the first, 0.99 ± 0.035 for the second.

CTGTAGGGGC and CTGTATAACG are within error of each other in switch fluorescence ratio: 1.09 ± 0.062 for the first, 0.998 ± 0.031 for the second.

CTGTATGATC and CTGTATTTGG are the same in switch fluorescence ratio: 1 ± 0.024 for the first, 1 ± 0.012 for the second.

CTGTATTTGT and CTGTCCGTTG are within error of each other in switch fluorescence ratio: 1.03 ± 0.019 for the first, 1.01 ± 0.017 for the second.

CTGTCGAGGC and CTGTCGGGTT are within error of each other in switch fluorescence ratio: 0.977 ± 0.053 for the first, 1.03 ± 0.04 for the second.

Going from CTGTCTGGCT to CTGTGCAACT, the switch fluorescence ratio rises from 1.02 ± 0.016 to 1.0489 ± 0.00058.

Compared with CTGTGGATGC, CTGTGGCAGG is lower in switch fluorescence ratio: 1.089 ± 0.0038 for the first, 1.021 ± 0.0041 for the second.

CTGTGGGCCG and CTGTGGGCGC are within error of each other in switch fluorescence ratio: 1 ± 0.02 for the first, 1.01 ± 0.027 for the second.

Going from CTGTGGGGAT to CTGTGTAGCT, the switch fluorescence ratio rises from 0.961 ± 0.014 to 1.02 ± 0.024.

CTGTGTGCAG and CTGTTATTTT are within error of each other in switch fluorescence ratio: 1.01 ± 0.034 for the first, 0.974 ± 0.03 for the second.

CTGTTCTGGG and CTGTTGGGAA are within error of each other in switch fluorescence ratio: 1.003 ± 0.0063 for the first, 1.04 ± 0.091 for the second.

Compared with CTGTTGTTTG, CTGTTTAATG is higher in switch fluorescence ratio: 0.9784 ± 0.0016 for the first, 0.9871 ± 0.0038 for the second.

CTGTTTCGAC and CTGTTTCGGG are within error of each other in switch fluorescence ratio: 1.02 ± 0.051 for the first, 0.978 ± 0.029 for the second.

CTGTTTGAGA and CTGTTTGCCT are within error of each other in switch fluorescence ratio: 1.02 ± 0.018 for the first, 0.983 ± 0.021 for the second.

CTGTTTGGGT and CTGTTTTGTG are within error of each other in switch fluorescence ratio: 0.9759 ± 0.0026 for the first, 1.01 ± 0.049 for the second.

CTGTTTTTGA and CTTAAAAGTA are within error of each other in switch fluorescence ratio: 0.96 ± 0.061 for the first, 0.972 ± 0.018 for the second.

Going from CTTAAAATGC to CTTAATGGGG, the switch fluorescence ratio falls from 1.66 ± 0.46 to 0.973 ± 0.024.

Compared with CTTACCTGAG, CTTAGAAGAT is lower in switch fluorescence ratio: 1.31 ± 0.045 for the first, 0.983 ± 0.044 for the second.

CTTAGCCTCA and CTTAGCCTTT are within error of each other in switch fluorescence ratio: 0.981 ± 0.034 for the first, 0.983 ± 0.016 for the second.

CTTAGGGAGA and CTTAGGGGGA are the same in switch fluorescence ratio: 1 ± 0.035 for the first, 1 ± 0.012 for the second.

CTTAGGTTTG and CTTAGTGAAA are within error of each other in switch fluorescence ratio: 1 ± 0.018 for the first, 0.988 ± 0.029 for the second.

CTTATAGCTT and CTTATCATGT are within error of each other in switch fluorescence ratio: 0.987 ± 0.033 for the first, 0.981 ± 0.034 for the second.

First: CTTATCGGCA
Second: CTTATCTCTG
The switch fluorescence ratio of the first is higher: 1.0825 ± 0.00095 for the first, 1.05 ± 0.019 for the second.

First: CTTATTATGG
Second: CTTCAAAGTA
The switch fluorescence ratio of the first is lower: 0.975 ± 0.021 for the first, 1.03 ± 0.026 for the second.

CTTCATTACT and CTTCCACGGT are within error of each other in switch fluorescence ratio: 1.08 ± 0.017 for the first, 1.21 ± 0.12 for the second.

Going from CTTCCGCTTG to CTTCGGACCG, the switch fluorescence ratio falls from 1.58 ± 0.021 to 1.03 ± 0.096.

Compared with CTTCGGAGGT, CTTCGGTGTT is lower in switch fluorescence ratio: 1.028 ± 0.0037 for the first, 0.9967 ± 0.0085 for the second.

Going from CTTCGTGACA to CTTCGTGATG, the switch fluorescence ratio rises from 1.042 ± 0.0027 to 1.1044 ± 0.00079.

CTTCTGAGGT and CTTCTGTGGC are within error of each other in switch fluorescence ratio: 1.74 ± 0.95 for the first, 1.071 ± 0.0073 for the second.

Compared with CTTCTTGTGG, CTTCTTGTTT is higher in switch fluorescence ratio: 0.9925 ± 0.009 for the first, 1.008 ± 0.0037 for the second.

For CTTCTTTGTG, the switch fluorescence ratio was 0.996 ± 0.018.
